Where two headings read alike, the source gives them in different places. Marks after values point to notes of the source that are not given here.
Assays:
[1] = target: T1, CD38 on red blood cells (RBCs) (Homo sapiens, UniProt P28907); assay: Interference with serological testing (Indirect Antiglobulin Test)
T1 construct: endogenous in cells; host or cells: red blood cells (patient / reagent RBCs)
Description: Since the Kell blood group system is also sensitive to DTT treatment, supply K-negative units after ruling out or identifying alloantibodies using DTT-treated RBCs.

[2] = Daratumumab pharmacokinetics in patients with light chain (AL) amyloidosis; type: in vivo, human
[3] = human, in vivo
[4] = system: patients with relapsed or refractory multiple myeloma; assay: COLUMBA randomized non-inferiority study, DARZALEX FASPRO monotherapy versus intravenous daratumumab;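 also: randomized arms stratified by body weight, myeloma type and count of earlier treatment lines, enrolled patients having a median of 4 previous lines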
Description: The major efficacy outcome measures were ORR by the IMWG response criteria and maximum Ctrough at pre-dose Cycle 3 Day 1 [see Clinical Pharmacology (12.3)]. Randomization was stratified by body weight, myeloma type, and number of prior lines of therapy.
Patients had received a median of 4 prior lines of therapy. […] Forty-nine percent of patients were refractory both a PI and an immunomodulatory agent. Eighty-two percent of patients were refractory to their last line of prior systemic therapy.

monkeys = assay: Hyaluronidase given subcutaneously to monkeys (systemic exposure, reproductive tissues); type: in vivo
Experimental: No carcinogenicity, genotoxicity, or fertility studies were conducted for recombinant human hyaluronidase. […] As hyaluronidase is a recombinant form of the endogenous human hyaluronidase, no carcinogenicity, mutagenesis, or effects on fertility are expected.

[5] = system: pregnant mice and offspring; assay: Hyaluronidase developmental toxicity in mice; type: in vivo
Description: There were no effects on pre- and post-natal development through sexual maturity in offspring of mice treated daily from implantation through lactation with 990,000 U/kg hyaluronidase subcutaneously, which is 134 times higher than the human doses.

[6] = All Grades, worsening from baseline
[7] = monkeys given 22,000 U/kg/week subcutaneously for 39 weeks

For “Daratumumab: immunoglobulin G1 kappa (IgG1κ) human monoclonal antibody that binds to the CD38 antigen; heavy chain SEQ ID NO: 12, light chain SEQ ID NO: 13”, the “Indirect Antiglobulin Test (Indirect Coombs test)” value [1] was “positive”, the “persistence of positive indirect antiglobulin test after the last administration” value [1] was “up to 6 months” and the “estimated mean volume of distribution” value ([2]; CV 28%) was 10.8 L. For the same molecule, the “estimated mean linear clearance” value ([2]; CV 42%) was 210 mL/day, the “estimated mean elimination half-life associated with linear clearance” value ([2]; CV 74%) was 28 days and the “estimated mean elimination half-life associated with linear clearance” value [3] was 20 days. For the same molecule, the “estimated mean linear clearance” value [3] was 119 mL/day, the “estimated mean volume of distribution for the central compartment” value [3] was 5.2 L and the “estimated mean volume of distribution, peripheral compartment” value [3] was 3.8 L. The “pharmacokinetics in geriatric patients compared to younger adult patients” value [3] was “No clinically meaningful differences”.

For “Intravenous Daratumumab: daratumumab 16 mg/kg administered intravenously”, the “Observed mean ± SD max Ctrough after 8th dose” value [3] was 522 ± 226^a,b μg/mL, the Back pain ([4]; All Grades) was 12% and the Chills ([4]; All Grades) was 12%. For the same molecule, the Cough ([4]; All Grades) was 14%, the Diarrhea ([4]; All Grades) was 11% and the Dyspnea ([4]; All Grades) was 11%. It also gave a Fatigue ([4]; All Grades) of 16%, an Infusion reactions ([4]; All Grades) of 34% and a Nausea ([4]; All Grades) of 11%. The Pneumonia ([4]; All Grades) was 10%, the Pyrexia ([4]; All Grades) was 13% and the Decreased hemoglobin [4, 6] was 39%. It also gave a Decreased leukocytes [4, 6] of 57%, a Decreased lymphocytes [4, 6] of 56% and a Decreased neutrophils [4, 6] of 43%. For the same molecule, the Decreased platelets [4, 6] was 45%, the Back pain ([4]; Grade ≥3) was 3^# % and the Chills ([4]; Grade ≥3) was 1^# %. For the same molecule, the Cough ([4]; Grade ≥3) was 0%, the Diarrhea ([4]; Grade ≥3) was 0.4^# % and the Dyspnea ([4]; Grade ≥3) was 1^# %. For the same molecule, the Fatigue ([4]; Grade ≥3) was 2^# %, the Infusion reactions ([4]; Grade ≥3) was 5^# % and the Nausea ([4]; Grade ≥3) was 0.4^# %. For the same molecule, the Pneumonia ([4]; Grade ≥3) was 6^@ %, the Pyrexia ([4]; Grade ≥3) was 1^# % and the Decreased hemoglobin ([4]; Grades 3-4) was 16%. It also gave a Decreased leukocytes ([4]; Grades 3-4) of 14%, a Decreased lymphocytes ([4]; Grades 3-4) of 36% and a Decreased neutrophils ([4]; Grades 3-4) of 11%. For the same molecule, the Decreased platelets ([4]; Grades 3-4) was 14%, the CR or better ([4]; in vivo) was “(2.7%)” and the Median progression-free survival ([4]; in vivo) was 6.1 months. For the same molecule, the “Partial response (PR)” value ([4]; in vivo) was “(20%)”, the “Very good partial response (VGPR)” value ([4]; in vivo) was “(14%)” and the “Overall response (sCR + CR + VGPR + PR)” value ([4]; intent-to-treat population) was “(37%)”.

B1: hyaluronidase: recombinant hyaluronidase rHuPH20 having the amino acid sequence of SEQ ID NO: 22 (protein, listed as Homo sapiens)
chain: LNFRAPPVIPNVPFLWAWNAPSEFCLGKFDEPLDMSLFSFIGSPRINATGQGVTIFYVDRLGYYPYIDSITGVTVNGGIPQKISLQDHLDKAKKDITFYMPVDNLGMAVIDWEEWRPTWARNWKPKDVYKNRSIELVQQQNVQLSLTEATEKAKQEFEKAGKDFLVETIKLGKLLRPNHLWGYYLFPDCYNHHYKKPGYNGSCFNVEIKRNDDLSWLWNESTALYPSIYLNTQQSPVAATLYVRNRVREAIRVSKIPDAKSPLPVFAYTRIVFTDQVLKFLSQDELVYTFGETVALGASGIVIWGTLSIMRSMKSCLLLDNYMETILNPYIINVTLAAKMCSQVLCQEQGVCIRKNWNSSDYLHLNPDNFAIQLEKGGKFTVRGKPTLEDLEQFSEKFYCSCYSTLSCKEKADVKDTDAVDVCIADGVCIDAFLKPPMETEEPQIFY
In the case of B1, the “systemic exposure of hyaluronidase” value (monkeys; monkeys given 22,000 U/kg subcutaneously) is reported as “No systemic exposure”, the “effects on reproductive tissues and function” value (monkeys; [7]) is reported as “no effects” and the “systemic exposure of hyaluronidase” value (monkeys; [7]) is reported as “no systemic exposure”. The “effects on post-natal development through sexual maturity in offspring” value ([5]; mice treated daily during lactation with 990,000 U/kg subcutaneously) was “no effects”, the “effects on pre- and post-natal development through sexual maturity in offspring” value ([5]; mice treated daily from implantation through lactation with 990,000 U/kg subcutaneously) was “no effects” and the “effects on embryo-fetal development” value ([5]; pregnant mice given 330,000 U/kg subcutaneously daily during organogenesis) was “no effects”.

Source: patent US20230233676A1, “Use of Approved Anti-CD38 Antibody Drug Product in Combination with Pomalidomide and Dexamethasone to Treat Multiple Myeloma” (Janssen Biotech, Inc., priority 2022, published 2023)
